The record followed here is patent US20060216303A1 (published 2006).

Assay [1] concerns the target T1, synthetic polypeptide 20-mer … of the breast mucin tandem repeat.
T1 construct: also called synthetic peptide started at the beginning of the 20 amino acid repeat
Nature of the assay: binding to synthetic 20-mer.

In assay [2] the target is T2, synthetic polypeptide 20-mer APPAHGVTSAPDTRPAPGST of the breast mucin tandem repeat.
T2 construct: also called synthetic peptide started in the middle of the repeat
T2 peptide: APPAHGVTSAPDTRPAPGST
Nature of the assay: binding to synthetic 20-mer.

T1 sequence (peptide, as listed by the source): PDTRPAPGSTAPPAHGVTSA

B1: murine BrE-3 monoclonal antibody (antibody, V domains shown)
VH: EVKLEESGGGLVQPGGSMKLSCAASGFTFSDAWMDWVRQSPEKGLEWVAEIRNKANNHATYYDESVKGRFTISRDDSKSRVYLQMISLRAEDTGLYYCTGEFANWGQGTLVTVSA
VL: DVVMTQTPLSLPVSLGDQASISCRSSQNLVHNNGNTYLYWFLQKSGQSPKLLIYRASIRFSGVPDRFSGSGSETDFTLKISRVEAEDLGVYFCFQGTHVPWTFGGGTKLEIK
notes: Whole murine antibody; The entries are printed with a 19-residue leader; also called anti-BrE-3 murine antibody; murine BrE-3 antibody
B1: the binding result in assay [1] and in assay [2] was “binds” throughout.
